The values that follow come from US20240270846A1 (published 2024).

Residue numbers refer to the chain shown, from its start. Names may count otherwise.

Sequences and labels used below:
B1: CE115HA000 H chain altered form H35A (antibody, human IgG1, kappa, L234A L235A, N297A, name in Kabat numbering)
heavy: QVQLVESGGGVVQPGRSLRLSCAASGFTFSNAWMAWVRQAPGKGLEWVAQIKAKSNNYATYYAESVKGRFTISRDDSKNSLYLQMNSLKTEDTAVYYCRYVHYGAYYGVDAWGQGTTVTVSSASTKGPSVFPLAPSSKSTSGGTAALGCLVKDYFPEPVTVSWNSGALTSGVHTFPAVLQSSGLYSLSSVVTVPSSSLGTQTYICNVNHKPSNTKVDKKVEPKSCDKTHTCPPCPAPEAAGGPSVFLFPPKPKDTLMISRTPEVTCVVVDVSHEDPEVKFNWYVDGVEVHNAKTKPREEQYASTYRVVSVLTVLHQDWLNGKEYKCKVSNKALPAPIEKTISKAKGQPREPQVYTLPPSRCELTKNQVSLSCAVKGFYPSDIAVEWESNGQPENNYKTTPPVLDSDGSFFLVSKLTVDKSRWQQGNVFSCSVMHEALHNHYTQKSLSLSPDYKDDDDK
chain: EPKSSDKTHTCPPCPAPELLGGPSVFLFPPKPKDTLMISRTPEVTCVVVDVSHEDPEVKFNWYVDGVEVHNAKTKPREEQYNSTYRVVSVLTVLHQDWLNGKEYKCKVSNKALPAPIEKTISKAKGQPREPQVCTLPPSRDELTKNQVSLWCLVKGFYPSDIAVEWESNGQPENNYKTTPPVLDSDGSFFLYSKLTVDKSRWQQGNVFSCSVMHEALHNRYTQKSLSLSP
light: DIVMTQSPLSLPVTPGEPASISCRSSQSLVHSNRNTYLHWYQQKPGQAPRLLIYKVSNRFSGVPDRFSGSGSGTDFTLKISRVEAEDVGVYYCGQGTQVPYTFGQGTKLEIKRTVAAPSVFIFPPSDEQLKSGTASVVCLLNNFYPREAKVQWKVDNALQSGNSQESVTEQDSKDSTYSLSSTLTLSKADYEKHKVYACEVTHQGLSSPVTKSFNRGEC
notes: one-arm antibody
B2: CE115HA000 H chain altered form A52aE (antibody, human IgG1, kappa, L234A L235A, N297A, name in Kabat numbering)
heavy: B1 heavy with A35H, A53E
chain: B1 chain
light: B1 light
notes: one-arm antibody
B3: CE115HA000 H chain altered form A52aY (antibody, human IgG1, kappa, L234A L235A, N297A, name in Kabat numbering)
heavy: B1 heavy with A35H, A53Y
chain: B1 chain
light: B1 light
notes: one-arm antibody
B4: CE115HA000 H chain altered form A56G (antibody, human IgG1, kappa, L234A L235A, N297A, name in Kabat numbering)
heavy: B1 heavy with A35H, A59G
chain: B1 chain
light: B1 light
notes: one-arm antibody
B5: CE115HA000 H chain altered form A52aG (antibody, human IgG1, kappa, L234A L235A, N297A, name in Kabat numbering)
heavy: B1 heavy with A35H, A53G
chain: B1 chain
light: B1 light
notes: one-arm antibody
B6: CE115HA000 H chain altered form A52aP (antibody, human IgG1, kappa, L234A L235A, N297A, name in Kabat numbering)
heavy: B1 heavy with A35H, A53P
chain: B1 chain
light: B1 light
notes: one-arm antibody
B7: CE115HA000 H chain altered form A52aV (antibody, human IgG1, kappa, L234A L235A, N297A, name in Kabat numbering)
heavy: B1 heavy with A35H, A53V
chain: B1 chain
light: B1 light
notes: one-arm antibody
B8: CE115HA000 H chain altered form A56Q (antibody, human IgG1, kappa, L234A L235A, N297A, name in Kabat numbering)
heavy: B1 heavy with A35H, A59Q
chain: B1 chain
light: B1 light
notes: one-arm antibody
B9: CE115HA000 H chain altered form A56D (antibody, human IgG1, kappa, L234A L235A, N297A, name in Kabat numbering)
heavy: B1 heavy with A35H, A59D
chain: B1 chain
light: B1 light
notes: one-arm antibody
B10: CE115HA000 H chain altered form A52aS (antibody, human IgG1, kappa, L234A L235A, N297A, name in Kabat numbering)
heavy: B1 heavy with A35H, A53S
chain: B1 chain
light: B1 light
notes: one-arm antibody
B11: CE115HA000 H chain altered form A56L (antibody, human IgG1, kappa, L234A L235A, N297A, name in Kabat numbering)
heavy: B1 heavy with A35H, A59L
chain: B1 chain
light: B1 light
notes: one-arm antibody
B12: CE115HA000 H chain altered form A52aD (antibody, human IgG1, kappa, L234A L235A, N297A, name in Kabat numbering)
heavy: B1 heavy with A35H, A53D
chain: B1 chain
light: B1 light
notes: one-arm antibody
B13: CE115HA000 H chain altered form A56N (antibody, human IgG1, kappa, L234A L235A, N297A, name in Kabat numbering)
heavy: B1 heavy with A35H, A59N
chain: B1 chain
light: B1 light
notes: one-arm antibody
B14: CE115HA000 H chain altered form A32Y (antibody, human IgG1, kappa, L234A L235A, N297A, name in Kabat numbering)
heavy: B1 heavy with A32Y, A35H
chain: B1 chain
light: B1 light
notes: one-arm antibody
B15: CE115HA000 H chain altered form A56K (antibody, human IgG1, kappa, L234A L235A, N297A, name in Kabat numbering)
heavy: B1 heavy with A35H, A59K
chain: B1 chain
light: B1 light
notes: one-arm antibody
B16: GLS3000 V27cY one-arm antibody (H chain CE115HA000) (antibody, human IgG1, kappa, L234A L235A, N297A, name in Kabat numbering)
heavy: B1 heavy with A35H
chain: B1 chain
light: B1 light with V30Y
notes: one-arm antibody
B17: GLS3000 Y32D one-arm antibody (H chain CE115HA000) (antibody, human IgG1, kappa, L234A L235A, N297A, name in Kabat numbering)
heavy: B1 heavy with A35H
chain: B1 chain
light: B1 light with Y37D
notes: one-arm antibody
B18: GLS3000 Y32A one-arm antibody (H chain CE115HA000) (antibody, human IgG1, kappa, L234A L235A, N297A, name in Kabat numbering)
heavy: B1 heavy with A35H
chain: B1 chain
light: B1 light with Y37A
notes: one-arm antibody
B19: GLS3000 V27cP one-arm antibody (H chain CE115HA000) (antibody, human IgG1, kappa, L234A L235A, N297A, name in Kabat numbering)
heavy: B1 heavy with A35H
chain: B1 chain
light: B1 light with V30P
notes: one-arm antibody
B20: GLS3000 V27cS one-arm antibody (H chain CE115HA000) (antibody, human IgG1, kappa, L234A L235A, N297A, name in Kabat numbering)
heavy: B1 heavy with A35H
chain: B1 chain
light: B1 light with V30S
notes: one-arm antibody
B21: GLS3000 V51D one-arm antibody (H chain CE115HA000) (antibody, human IgG1, kappa, L234A L235A, N297A, name in Kabat numbering)
heavy: B1 heavy with A35H
chain: B1 chain
light: B1 light with V56D
notes: one-arm antibody

The first experiment concerns the target T1, CD3 epsilon homodimer protein (UniProt P07766 23-126).
T1 construct: also called CD3 (CD3 epsilon)
The experiment can be described thus: SPR Biacore T200, CD3 epsilon homodimer on chip, antibody as analyte.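 Note: homodimer amine-coupled to a CM4 sensor chip, run at 25 °C in HBS-EP+ buffer, with kinetic parameters derived in Biacore T200 Evaluation Software.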
T1 sequence (P07766 23-126): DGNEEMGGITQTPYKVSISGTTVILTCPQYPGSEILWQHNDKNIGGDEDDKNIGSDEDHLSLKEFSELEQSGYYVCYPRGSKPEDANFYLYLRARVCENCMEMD
Description: An appropriate amount of CD3 epsilon homodimer protein was immobilized onto Sensor chip CM4 (GE Healthcare Japan Corp.) by the amine coupling method. Then, the antibody having an appropriate concentration was injected thereto as an analyte and allowed to interact with the CD3 epsilon homodimer protein on the sensor chip. Then, the sensor chip was regenerated by the injection of 10 mmol/L glycine-HCl (pH 1.5). The assay was conducted at 25 degrees C., and HBS-EP+(GE Healthcare Japan Corp.) was used as a running buffer. […] Each parameter was calculated using Biacore T200 Evaluation Software (GE Healthcare Japan Corp.).
Specifically, when the amount of the antibody comprising CE115HA000 bound was defined as X and the amount of the H chain one-amino acid altered form bound was defined as Y, a value of Z (ratio of amounts bound)=Y/X was used.
As for B1, the “KD ratio (KD of CE115HA000 / KD of altered form)” value was 25.

As for B2, the “KD ratio (KD of CE115HA000 / KD of altered form)” value turned out to be 0.89.

With B3, the “KD ratio (KD of CE115HA000 / KD of altered form)” value was 7.71.

On to B4, for which the “KD ratio (KD of CE115HA000 / KD of altered form)” value amounted to 0.59.

Turning to B5, the “KD ratio (KD of CE115HA000 / KD of altered form)” value turned out to be 0.61.

As to B6, the “KD ratio (KD of CE115HA000 / KD of altered form)” value was 5.

Turning to B7, the “KD ratio (KD of CE115HA000 / KD of altered form)” value was 0.95.

On to B8, for which the “KD ratio (KD of CE115HA000 / KD of altered form)” value was 0.74.

As for B9, the “KD ratio (KD of CE115HA000 / KD of altered form)” value worked out at 0.71.

In the case of B10, the “KD ratio (KD of CE115HA000 / KD of altered form)” value amounted to 0.82.

B11: the “KD ratio (KD of CE115HA000 / KD of altered form)” value came out at 0.77.

Turning to B12, the “KD ratio (KD of CE115HA000 / KD of altered form)” value amounted to 1.35.

For the molecule B13, the “KD ratio (KD of CE115HA000 / KD of altered form)” value came to 0.84.

Regarding B14, the “KD ratio (KD of CE115HA000 / KD of altered form)” value worked out at 2.11.

Turning to B15, the “KD ratio (KD of CE115HA000 / KD of altered form)” value was 1.32.

The target in a further experiment is T2, CD3 epsilon homodimer protein (UniProt P07766 23-126).
T2 construct: also called CD3 (CD3 epsilon)
The experiment can be described thus: SPR, CD3e homodimer on chip.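 Note: surface plasmon resonance at 25 degrees C, antibodies flowed as analyte over CD3 epsilon homodimer amine-coupled to a CM4 chip, running buffer HBS-EP+.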 In general terms: SPR reads the build-up and loss of mass on a sensor chip optically.
T2 sequence (P07766 23-126): as above
Take B16: the “ratio of amounts bound (altered form / unaltered GLS3000 antibody)” value is 0.77.

Regarding B17, the “ratio of amounts bound (altered form / unaltered GLS3000 antibody)” value was found to be 0.23.

On to B18, for which the “ratio of amounts bound (altered form / unaltered GLS3000 antibody)” value is 0.24.

Turning to B19, the “ratio of amounts bound (altered form / unaltered GLS3000 antibody)” value was found to be 0.3.

For the molecule B20, the “ratio of amounts bound (altered form / unaltered GLS3000 antibody)” value worked out at 0.51.

Regarding B21, the “ratio of amounts bound (altered form / unaltered GLS3000 antibody)” value is 0.33.
